The record followed here is publication PMC11321319, “Shy is a proteobacterial steroid hydratase which catalyzes steroid side chain degradation without requiring a catalytically inert partner domain” (The Journal of Biological Chemistry, 2024).

Series [1] relates to T1, C/C=C/C(=O)SCCNC(=O)CCNC(=O)[C@H](O)C(C)(C)COP(=O)(O)OP(=O)(O)OC[C@H]1O[C@@H](n2cnc3c(N)ncnc32)[C@H](O)[C@@H]1OP(=O)(O)O.
T1 construct: C-terminal MaoC domain only (DUF35 removed), His-tagged (pET28a NdeI/HindIII), from E. coli BL21 LOBSTR; homodimer
Description: purified protein. Type of series: biochemical, Comamonas testosteroni. To be noted: 100 mM sodium Hepes pH 7.5, 25 °C.

The test system of series [2] is T2, C[C@H](/C=C/C(=O)SCCNC(=O)CCNC(=O)[C@H](O)C(C)(C)COP(=O)(O)OP(=O)(O)OC[C@H]1O[C@@H](n2cnc3c(N)ncnc32)[C@H](O)[C@@H]1OP(=O)(O)O)[C@H]1CC[C@H]2[C@@H]3[C@H](O)C[C@@H]4C[C@H](O)CC[C@]4(C)[C@H]3C[C@H](O)[C@]12C.
T2 construct: C-terminal MaoC domain only (DUF35 removed), His-tagged (pET28a NdeI/HindIII), from E. coli BL21 LOBSTR; homodimer
Description: purified protein. Type of series: biochemical, Comamonas testosteroni. Conditions: 100 mM sodium Hepes pH 7.5, 25 °C.

Series [3] deals with the molecule itself. Nature of the series: SEC; analytical size-exclusion chromatography, Superdex 200, 20 mM sodium Hepes pH 7.5, 0.15 M NaCl; native molecular weight from a standard curve. Background: SEC sorts molecules by how far they enter the pores of the column.
Substrate in series [4]: C/C=C/C(=O)SCCNC(=O)CCNC(=O)[C@H](O)C(C)(C)COP(=O)(O)OP(=O)(O)OC[C@H]1O[C@@H](n2cnc3c(N)ncnc32)[C@H](O)[C@@H]1OP(=O)(O)O
Nature of the series: purified protein. Type of series: biochemical, Comamonas testosteroni. To be noted: 100 mM sodium Hepes pH 7.5, 25 °C.

Substrate in series [5]: C[C@H](/C=C/C(=O)SCCNC(=O)CCNC(=O)[C@H](O)C(C)(C)COP(=O)(O)OP(=O)(O)OC[C@H]1O[C@@H](n2cnc3c(N)ncnc32)[C@H](O)[C@@H]1OP(=O)(O)O)[C@H]1CC[C@H]2[C@@H]3CC=C4C[C@@H](O)CC[C@]4(C)[C@H]3CC[C@]12C
Nature of the series: purified protein. To be noted: 100 mM sodium Hepes pH 7.5, 25 °C. Type of series: biochemical, Comamonas testosteroni.

Substrate in series [6]: C[C@H](/C=C/C(=O)SCCNC(=O)CCNC(=O)[C@H](O)C(C)(C)COP(=O)(O)OP(=O)(O)OC[C@H]1O[C@@H](n2cnc3c(N)ncnc32)[C@H](O)[C@@H]1OP(=O)(O)O)[C@H]1CC[C@H]2[C@@H]3[C@H](O)C[C@@H]4C[C@H](O)CC[C@]4(C)[C@H]3C[C@H](O)[C@]12C
Description: purified protein. It is filed as biochemical, Comamonas testosteroni. To be noted: 100 mM sodium Hepes pH 7.5, 25 °C.

Series [7] deals with T3, N-terminal His-tagged Sal (side chain aldolase / steroid aldolase) from Comamonas testosteroni KF-1 (Comamonas testosteroni KF-1, UniProt B7X4S8 1-404).
T3 construct: gene amplified from genomic DNA; theoretical molecular weight of tagged Sal 46.08 kDa; Cloned into pMCSG7 by ligation independent cloning; source: E. coli BL21 LOBSTR (pMCSG7), coexpressed with untagged Shy or its truncated forms; in cell extract, then purified on Ni-NTA; not shown: His tag, N-terminal, kept
T3 sequence (looked up): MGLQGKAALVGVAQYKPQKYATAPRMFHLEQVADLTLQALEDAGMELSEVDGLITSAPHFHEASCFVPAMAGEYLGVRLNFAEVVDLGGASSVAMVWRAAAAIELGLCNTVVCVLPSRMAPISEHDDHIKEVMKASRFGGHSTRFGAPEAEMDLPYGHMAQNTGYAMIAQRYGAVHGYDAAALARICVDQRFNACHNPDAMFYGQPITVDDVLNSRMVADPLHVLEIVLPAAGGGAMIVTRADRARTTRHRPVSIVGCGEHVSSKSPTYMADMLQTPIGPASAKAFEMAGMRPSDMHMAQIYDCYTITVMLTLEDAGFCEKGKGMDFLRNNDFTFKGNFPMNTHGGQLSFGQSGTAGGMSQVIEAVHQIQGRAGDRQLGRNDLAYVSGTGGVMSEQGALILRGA
Description: SEC; analytical size-exclusion chromatography, Superdex 200, 20 mM sodium Hepes pH 7.5, 0.15 M NaCl; native molecular weight from a standard curve. To be noted: both partners purified.

Substrate in series [8]: C[C@H](C(O)CC(=O)SCCNC(=O)CCNC(=O)[C@H](O)C(C)(C)COP(=O)(O)OP(=O)(O)OC[C@H]1O[C@@H](n2cnc3c(N)ncnc32)[C@H](O)[C@@H]1OP(=O)(O)O)[C@H]1CC[C@H]2[C@@H]3[C@H](O)C[C@@H]4C[C@H](O)CC[C@]4(C)[C@H]3C[C@H](O)[C@]12C
Description: purified protein. Type of series: biochemical, Comamonas testosteroni. Conditions: 100 mM sodium Hepes pH 7.5, 25 °C, 1 mM NAD+, 7 nM Sad (coupling enzyme).

Regarding “ShyMaoC (Comamonas testosteroni KF-1; I309F)”, in series [1], the Michaelis-Menten constant (Km) was found to be 65.0 ± 3.25 µM, the kcat is 0.00555 ± 0.000129 s⁻¹ and the specificity constant (kcat/Km) was found to be 85.4 ± 4.71 M⁻¹ s⁻¹. In series [2], the Km was 12.3 ± 1.05 µM, the turnover number (kcat) amounted to 67.2 ± 2.77 s⁻¹ and the kcat/Km worked out at 5.46e+06 ± 518000 M⁻¹ s⁻¹.

B1: His-tagged Shy_(MaoC), MaoC domain of Shy (domain or fragment, Comamonas testosteroni KF-1, UniProt B7X4S7 148-312, looked up)
chain: EVAVVEQSVAAKRRISVKDIEAMKSLVSEEYSPWSNEFTVSQEVIDEFARLSGDDYWIHTDPVQAREKSPFGTTIAHGALVQVLASQLRIPLDYEVVDFNNMVNYGSDRLRFPTPVPSGCKIRARARIKAVEQVRSGVQATMELNIHVVGQDRPAVINDLVILYM
notes: theoretical molecular weight of the tagged construct 20.5 kDa; Inserted into pET28a between NdeI and HindIII; source: E. coli BL21 LOBSTR (pET28a), purified (Ni-NTA)
With B1, the “stoichiometry N” value in series [3] was 2.

B2: ShyMaoC (Comamonas testosteroni KF-1) (protein)
chain: ESEVAVVEQSVAAKRRISVKDIEAMKSLVSEEYSPWSNEFTVSQEVIDEFARLSGDDYWIHTDPVQAREKSPFGTTIAHGALVQVLASQLRIPLDYEVVDFNNMVNYGSDRLRFPTPVPSGCKIRARARIKAVEQVRSGVQATMELNIHVVGQDRPAVINDLVILYM
notes: C-terminal MaoC domain only (DUF35 removed), His-tagged (pET28a NdeI/HindIII), from E. coli BL21 LOBSTR; homodimer
With B2, in the series “purified protein [4]”, the Km is 63.6 ± 3.62 µM, the kcat is 0.00412 ± 0.00011 s⁻¹ and the kcat/Km is 64.8 ± 4.07 M⁻¹ s⁻¹. Moreover, in “purified protein [5]”, the Michaelis constant (Km) came to 6.71 ± 0.588 µM, the kcat is 62.9 ± 2.32 s⁻¹ and the specificity constant (kcat/Km) was found to be 9.37e+06 ± 890000 M⁻¹ s⁻¹. In addition, in the series “purified protein [6]”, the Km stood at 6.14 ± 0.524 µM, the turnover number (kcat) was 211 ± 6.71 s⁻¹ and the catalytic efficiency (kcat/Km) is 3.44e+07 ± 3.13e+06 M⁻¹ s⁻¹.

B3: Untagged Shy (side chain hydratase) from Comamonas testosteroni KF-1 (enzyme, UniProt B7X4S7 1-312, looked up)
chain: MAWNKPLPHPTEISAPYWEGLKAHEVRIQQCDRGHSLFFPRTHCPTCGSRSLKWSKVSGEGTLYSFTVARIPTMPEFTDEMPQALAVIELREGVRINTTMVGVAPEALKVGMEVRPVFDERPGEVTLLRFTAHAGSHPSVIKADAESEVAVVEQSVAAKRRISVKDIEAMKSLVSEEYSPWSNEFTVSQEVIDEFARLSGDDYWIHTDPVQAREKSPFGTTIAHGALVQVLASQLRIPLDYEVVDFNNMVNYGSDRLRFPTPVPSGCKIRARARIKAVEQVRSGVQATMELNIHVVGQDRPAVINDLVILYM
notes: N-terminal DUF35 domain and C-terminal MaoC domain; theoretical molecular weight 34.81 kDa; called 'the full protein' in the discussion; source: E. coli BL21 LOBSTR (pBTLactac, tagless), coexpressed with His-tagged Sal; in cell extract, then copurified on Ni-NTA
Turning to B3, in “purified protein [6]”, the Michaelis-Menten constant (Km) was determined as 6.19 ± 0.446 µM, the kcat is 163 ± 1.5 s⁻¹ and the kcat/Km was 2.64e+07 ± 1.91e+06 M⁻¹ s⁻¹. Besides, the “stoichiometry N” value in series [7] was 1 Shy per Sal (2:2 complex).

B4: Shy-Sal (aldolase site in Sal) (Comamonas testosteroni KF-1) (protein)
chain: MGLQGKAALVGVAQYKPQKYATAPRMFHLEQVADLTLQALEDAGMELSEVDGLITSAPHFHEASCFVPAMAGEYLGVRLNFAEVVDLGGASSVAMVWRAAAAIELGLCNTVVCVLPSRMAPISEHDDHIKEVMKASRFGGHSTRFGAPEAEMDLPYGHMAQNTGYAMIAQRYGAVHGYDAAALARICVDQRFNACHNPDAMFYGQPITVDDVLNSRMVADPLHVLEIVLPAAGGGAMIVTRADRARTTRHRPVSIVGCGEHVSSKSPTYMADMLQTPIGPASAKAFEMAGMRPSDMHMAQIYDCYTITVMLTLEDAGFCEKGKGMDFLRNNDFTFKGNFPMNTHGGQLSFGQSGTAGGMSQVIEAVHQIQGRAGDRQLGRNDLAYVSGTGGVMSEQGALILRGA
notes: same complex as P1: N-terminally His-tagged Sal with untagged full-length Shy, from E. coli BL21 LOBSTR; 160 kDa heterotetramer; with Side chain hydratase Shy, bifunctional OB-fold (DUF35) / MaoC family dehydratase domain-containing protein
For B4, in the series “purified protein [8]”, the Michaelis-Menten constant (Km) was determined as 8.12 ± 0.477 µM, the kcat amounted to 37.6 ± 0.8 s⁻¹ and the specificity constant (kcat/Km) turned out to be 4.63e+06 ± 289000 M⁻¹ s⁻¹.

As a reminder, the Km is the concentration of substrate that gives half-maximal velocity. By kcat is commonly meant the number of substrate molecules converted per active site and unit of time at saturation. In general, kcat/Km refers to the second-order rate constant that governs catalysis at low substrate concentration. By stoichiometry N is commonly meant a count of units in the complex or per binding partner.
